Measurements: CN114907480A (JIANGSU XINTRUM PHARMACEUTICALS CO LTD, dated 2022)

T1: 重组人CD73蛋白 (自主表达的人源CD73蛋白, C端6×His标签) (human, UniProt P21589 27-549, limits assumed)
T1 sequence: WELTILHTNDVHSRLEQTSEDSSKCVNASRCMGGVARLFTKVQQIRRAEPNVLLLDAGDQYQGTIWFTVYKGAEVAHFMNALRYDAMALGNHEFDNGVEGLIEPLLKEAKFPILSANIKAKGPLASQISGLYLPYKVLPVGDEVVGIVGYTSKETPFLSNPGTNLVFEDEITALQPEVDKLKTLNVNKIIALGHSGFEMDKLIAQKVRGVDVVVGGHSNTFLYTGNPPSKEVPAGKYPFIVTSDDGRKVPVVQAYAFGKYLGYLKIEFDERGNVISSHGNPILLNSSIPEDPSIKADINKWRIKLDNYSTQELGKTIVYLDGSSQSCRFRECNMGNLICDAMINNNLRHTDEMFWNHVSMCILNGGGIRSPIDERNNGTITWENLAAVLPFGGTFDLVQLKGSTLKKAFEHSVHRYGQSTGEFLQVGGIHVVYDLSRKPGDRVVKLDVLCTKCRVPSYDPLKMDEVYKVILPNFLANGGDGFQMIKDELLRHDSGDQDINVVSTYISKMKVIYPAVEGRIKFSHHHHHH


Experiments:
[1] = molecular target: T1, 重组人CD73蛋白 (自主表达的人源CD73蛋白, C端6×His标签); assay: SPR, Biacore T200, antibody captured on CM5 chip, human CD73 as analyte, 25℃, 1:1 model
[2] = molecular target: T1, 重组人CD73蛋白 (自主表达的人源CD73蛋白, C端6×His标签); assay: SPR, Biacore T200, antibody captured by anti-mouse Fc IgG on CM5 chip, human CD73 as analyte, 25℃, 1:1 model

Binder | Kd [1] [nM] | koff [1] [s⁻¹] | kon [1] [M⁻¹ s⁻¹] | Kd [2] [nM] | koff [2] [s⁻¹] | kon [2] [M⁻¹ s⁻¹]
MEDI-9447 (MedImmune公司的抗CD73单克隆抗体) (antibody, V domains shown) VH: EVQLLESGGGLVQPGGSLRLSCAASGFTFSSYAYSWVRQAPGKGLEWVSAISGSGGRTYYADSVKGRFTISRDNSKNTLYLQMNSLRAEDTAVYYCARLGYGRVDEWGRGTLVTVSS VL: QSVLTQPPSASGTPGQRVTISCSGSLSNIGRNPVNWYQQLPGTAPKLLIYLDNLRLSGVPDRFSGSKSGTSASLAISGLQSEDEADYYCATWDDSHPGWTFGGGTKLTVL | 0.141 | 3.91e-05 | 278000 |  |  | 
抗人CD73单克隆抗体7-C10-Ba-C2 (antibody, V domains shown, Mouse (BALB/c) hybridoma antibody, IgG type, purified from ascites; also called 本发明抗体7-C10-Ba-C2; 本发明的抗CD73单抗) VH: EVQLQQSGPELVKPGASMKISCKASGYSFTGYTMNWVKQSHGKNLEWIGFITPYNGDTIYNQKFKGKATVTVDKSSSTAYMDLLSLTSEDSAVYYCAREGYDGGYFDYWGQGTTLTVSS VL: DIQMTQSPASLSASVGETVTITCRASENIYSYLAWYQQKQGKSPQLLVYNTQTLAEGVPSRFSGSGSGTQFSLKINSLQPEDFGSYYCQHHYGTPMYPFGGGTKLEIK |  |  |  | 0.416 | 3.21e-05 | 77200
